Test results published in US20050038229A1 (published 2005).
Substitutions are numbered along the chain they refer to.

B1: T10.15 (designed binder)
chain: VSDVPRDLEVVAATPTSLLISWHTERSFPRYYRITYGETGGNSPVQEFTVPPWGSIATISGLKPGVDYTITVYAVTEHYRDTGTGHPIPINYRT
B2: T14.22 (designed binder)
chain: VSDVPRDLEVVAATPSSRLISWRPGRTYSRYYRITYGETGGNSPVQEFTVPPWANTATISGLKPGVDYTIAVYAVTFPTGYPLTEMPISINYRT
B3: M12.09 (designed binder)
chain: B2 chain with S16T, T27A, Y32F, T79P, G80R, T94A
B4: T14.21 (designed binder)
chain: VSDVPRDLEVVAATPTSRLISWRPGRTYSRYYRITYGETGGNSPVQEFTVPPWANTATISGLKPGVDYTITAYAVTYTHSTPMQDEPISINYRT
B5: T14.20 (designed binder)
chain: VSDVPRDLEVVAATPTSRLISWRNIYPIARYYRITYGETGGNSPVQEFTVPPWASIATISGLKPGADYTITVYAVTDKSDTYKYDDPISINYRT
B6: M12.16 (designed binder)
chain: B5 chain with N24P, I25G, Y26R, P27T, I28Y, A29S, T39A, A66V, D80G, K83R
B7: M12.22 (designed binder)
chain: VSDVPRDLRVVAATPTSRLISWRPASNPARYYRITYGETGGNSPVQEFTVPPWASVATIGGLKPGVDYTVTVYAVTAQTGHRLHDKPISINYRT
B8: T14.02 (designed binder)
chain: VSDVPRDLEVVVATPTSQLISWMTPHNHVRYYGITYGETGGNSPVQESTVPTGNATATISGLKPGVDYTITVYAVTPHHGHFDLEPPISINYRT
B9: M12.14 (designed binder)
chain: VSDVPRDLKVVAATPTSRLISWTHDNVPARYYRITYGETGGNSPVQELTVPPWASIATISGLKPGVDYTITVYAVTLYTGNHRPEHPISINYRT
B10: M12.04 (designed binder)
chain: VSDVPGDLEVVAATPTSLLIGWSMTPNWPRYYRIAYGETGGDSPVQEFTVPPWASIAIIGGLKPGVDYTITVYAVTHRDTPISINYRT
notes: FG loop cell holds only HRDT
B11: M12.19 (designed binder)
chain: VSDVPRDLEVVAATPTGLLISWRNNQYTPRHYGITYGETGGKSPVQEFTVPELNPTATISRLKPGVDYTITVYAVTQNGTPRVIYGPISINYRT
B12: M12.08 (designed binder)
chain: VSDVPRDLEVVAATPTSLLNVPIIRYYRITYGETGGNSPVQEFTVPAPKAIATTSGLKPGVDYTITVYGVTSHRNHFHVETPISINYQA
notes: BC loop cell holds only II
B13: M12.24 (designed binder)
chain: VSDVPRDLEVVAATPTSRLISWNRSGLQSGYYRITYGETGGNSPVQEFTVPPWASIATISGLKPGVDYTITVYAVTPNVGRLDTRYPISIDCRT
B14: M12.12 (designed binder)
chain: VSDVPSDLEVVAATPTSLLISWEQSPTYGRYYRITYGETGGNSPVQEFTVPGSKSTATISGRKPGADYTITVYAVTIEKDRIPLFGPISISYRT

Biological target: T1, tumor necrosis factor-α (TNF-α) (human, UniProt P01375 77-233, biotinylated with NHS-LC-LC-Biotin in the Kd and fluorescence assays; coupled to Epoxy-Activated Sepharose 6B in the column assays)
T1 construct: Bought from Pepro Tech; also called biotin-TNF-α; biotinylated TNF-α
T1 sequence (P01375 77-233 limits assumed): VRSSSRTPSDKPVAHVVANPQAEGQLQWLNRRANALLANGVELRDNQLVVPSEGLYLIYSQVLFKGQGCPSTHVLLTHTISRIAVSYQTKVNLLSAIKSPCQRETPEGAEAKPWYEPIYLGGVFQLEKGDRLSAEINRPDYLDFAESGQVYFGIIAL
Assay: 35S free protein + biotin-TNF-α, capture membrane, equilibrium fit
Method: Subsequently, each sample was loaded on a pre-soaked, SAM2R Biotin Capture Membrane (Promega, Madison, Wis.) using a 96 well, Easy-Titer™ ELIFA system (Pierce). Under vacuum, each spot was washed with 200 μL of HBS pH 7.4, 1% BSA, 0.05% Triton; next the entire membrane was rinsed in the buffer and air-dried. The membrane was exposed with a Storage Phosphor Screen (Molecular Dynamics, Sunnyvale, Calif.) overnight, and the intensities of the resulting individual spots were quantified using a STORM 860 phosphoimager with the ImageQuaNT densitometry program (Molecular Dynamics). The Kd of the binding was determined by fitting the equilibrium equation to the resulting binding curve (KaleidaGraph, Synergy Software); the error of the experiment was estimated from 2-4 independent experiments.

Binder	Kd [nM]
B1	4
B2	0.4
B3	0.4
B4	7
B5	0.11
B6	0.3
B7	0.7
B8	0.5
B9	1.7
B10	0.02
B11	0.6
B12	0.6
B13	1.3
B14	0.2
